For 116 sequences, protein stability index results are on record in the supplement of paper PMC10724198.

± gives the standard deviation of the averaged measurements.
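Note: PSI is a weighted mean of sequencing reads over stability bins, variants kept only with over 10 reads, mCherry proximal and sfGFP distal, peptide attached via GGGS linker.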

The data set concerns Saccharomyces cerevisiae. The experiment in a line: protein stability index of tFT-peptide fusion (C-terminal peptide) (PSI (0-1 scale)); higher = more stable (slower turnover). The conditions noted are these: genetic background: wild type; temperature: 30 C.
Sequence HGNWGSSPVVSG showed a protein stability index of 0.632 ± 0.055. As to HGPFLSNLLPDK, the protein stability index amounted to 0.799 ± 0.085. HGVVGVFGLVSG showed a protein stability index of 0.664 ± 0.0075. HIGSYTFILPSS had a protein stability index of 0.759 ± 0.064. For HIHHVPGPHITA, the protein stability index is 0.706 ± 0.0088. The result for HIHQDPGVIRWG reads 0.7216 ± 0.0015. As for HIHRGDRVIGDV, the figure is 0.682 ± 0.01; as for HINVAVAKYSRQ, 0.697 ± 0.047. HIPPFSPCPPTG: the protein stability index amounted to 0.707 ± 0.02. In turn, HITMERTERTKY returned a protein stability index of 0.7145 ± 0.0057. HKEHLDNPRLRP came in with a protein stability index of 0.714 ± 0.012. For HKKAWVVTVGIS, the protein stability index amounted to 0.602 ± 0.042. Consider HKRCCIPTNDSQ, for which the protein stability index stood at 0.6991 ± 0.0063. Take HKTNTSRKSRRT: the protein stability index was found to be 0.737 ± 0.12. HLCLACYRSVDM returned a protein stability index of 0.688 ± 0.011.

Consider HLFYASCNSSAS, for which the protein stability index stood at 0.67112 ± 0.00053. Regarding HLLCPLSPYICH, the protein stability index is 0.681 ± 0.02.

For the sequence HLLNPVRSPLPA, the protein stability index is 0.63 ± 0.063. HLPLPPRLLTHV registered a protein stability index of 0.654 ± 0.042. Sequence HLPPPPTPFPLT showed a protein stability index of 0.757 ± 0.16. In turn, HMCPWVWPVRDQ came in with a protein stability index of 0.691 ± 0.024. HMGTNSSTGDRN returned a protein stability index of 0.636 ± 0.032.

In turn, HNIRIDTSEKNR came in with a protein stability index of 0.6001 ± 0.0024. As for HNKTTNGNSHKN, the figure is 0.715 ± 0.073; as for HPATPPPLLPPL, 0.74479 ± 0.0007. HPFLPLFYHFPF showed a protein stability index of 0.733 ± 0.037. For the sequence HPPASPPHSPRS, the protein stability index was 0.63 ± 0.07. In the case of HPPKPHHPSNPC, the protein stability index is 0.691 ± 0.034.

Regarding HPPLLPPPTPTS, the protein stability index stood at 0.752 ± 0.062.

Consider HPPLPPPLPGSP, for which the protein stability index was determined as 0.761 ± 0.049. Take HPPPDPPFLAST: the protein stability index came to 0.611 ± 0.042. The result for HPPPVLSPPLSP reads 0.7107 ± 0.0033; that for HPPSPPPPPSRL, 0.713 ± 0.071; that for HPPTLPPLPIPP, 0.625 ± 0.0091. In turn, HPRPPAASSRTR gave a protein stability index of 0.707 ± 0.044. As for HPRWTPPTQSAS, the figure is 0.716 ± 0.049. For HPSSLRLSSSAF, the protein stability index turned out to be 0.697 ± 0.014. In turn, HPVLGPNRVINI came in with a protein stability index of 0.71 ± 0.087.

HPVPFSVASHLN returned a protein stability index of 0.645 ± 0.03. HPWAFRIRTPRL displayed a protein stability index of 0.752 ± 0.09.

HPYVTSHGRPLR registered a protein stability index of 0.677 ± 0.024. In the case of HQPSPFPKNSPT, the protein stability index came to 0.717 ± 0.06. As for HRARWLSLGVTW, the protein stability index amounted to 0.655 ± 0.035. As to HRCNCVFPENSL, the protein stability index was determined as 0.693 ± 0.038.

HRFEEGAPAPTE showed a protein stability index of 0.704 ± 0.013. HRGIPMRDLAPN came in with a protein stability index of 0.675 ± 0.02. HRKPHRSKTPIH returned a protein stability index of 0.693 ± 0.032. Consider HRLSFPTQNIRG, for which the protein stability index amounted to 0.677 ± 0.019. The sequence HRPPSVNRVSLM yielded a protein stability index of 0.692 ± 0.012.

The sequence HRRCPILFKMAT gave a protein stability index of 0.674 ± 0.12.

Sequence HRSIDEGCSCCD registered a protein stability index of 0.627 ± 0.093. Sequence HSCFPPLSTSVL returned a protein stability index of 0.817 ± 0.12. The result for HSGDLYFWGCRD reads 0.706 ± 0.061; that for HSLRRLSLYVSL, 0.612 ± 0.086; that for HSPHSQYLLRID, 0.72 ± 0.033. As for HSPPSPHFPHHH, the figure is 0.6609 ± 0.0043. On to HSPVPPLPALPL, for which the protein stability index worked out at 0.73 ± 0.024. Sequence HSQAPPPHPHAP had a protein stability index of 0.719 ± 0.024. For HSRALLSVLPPH, the protein stability index is 0.7023 ± 0.0057. The result for HSRPHTAPPYRA reads 0.643 ± 0.023. The result for HSSDTAFSPLPP reads 0.6449 ± 0.0024; that for HSWFSWSVVSEL, 0.7308 ± 0.0018; that for HSYLSPPLLASP, 0.715 ± 0.069. As for HTEELKKSIKTQ, the figure is 0.637 ± 0.082; as for HTEVDIVKRDRR, 0.6896 ± 0.00098; as for HTGPTRPGHPLP, 0.703 ± 0.03. The sequence HTRLCFSPPRGI yielded a protein stability index of 0.686 ± 0.02.

In turn, HTWARGLGVIRP showed a protein stability index of 0.768 ± 0.012. Sequence HTYKADSLYTAR returned a protein stability index of 0.748 ± 0.015.

Take HVRLSCTRGMVI: the protein stability index came out at 0.695 ± 0.015. As for HVVVSPRSNRIL, the figure is 0.7429 ± 0.0055; as for HWPSPLSPAVPG, 0.804 ± 0.084. As for HWRWGGRSGGDR, the protein stability index worked out at 0.707 ± 0.013. As for HYPLPPLLPPAP, the figure is 0.674 ± 0.014; as for HYRSNFGRDSNL, 0.762 ± 0.082; as for IAAPANQGHSKP, 0.694 ± 0.042. The sequence IACDPNNRKDFT had a protein stability index of 0.627 ± 0.008. As for IACSVWYCCMVI, the protein stability index is 0.526 ± 0.014. As for IAEVGRFHLVVS, the figure is 0.542 ± 0.04; as for IALWLYALSLAF, 0.532 ± 0.016. As for ICCGLCRDCSCL, the protein stability index amounted to 0.732 ± 0.069. Take ICEYGLKRKIHF: the protein stability index stood at 0.68199 ± 0.0006. As for ICRFSNRYSCPL, the figure is 0.689 ± 0.016. In turn, ICSVGGFWLSCV gave a protein stability index of 0.596 ± 0.032.

In turn, ICVTSFSVWGCC had a protein stability index of 0.592 ± 0.028.

As for IDLVLCIGLGYQ, the protein stability index turned out to be 0.62 ± 0.063.

Sequence IDPTLPARAAPP displayed a protein stability index of 0.737 ± 0.029. The result for IDPVVFCEYTHA reads 0.688 ± 0.011; that for IDVIIESVFSLF, 0.619 ± 0.09. As for IEFPQGRKTTQS, the protein stability index turned out to be 0.629 ± 0.0082. IENNIITRGTRV registered a protein stability index of 0.735 ± 0.027. The result for IERFKKMRGVGS reads 0.801 ± 0.084; that for IERKNYPQNRRQ, 0.62 ± 0.046; that for IFGMSGYVSIIL, 0.671 ± 0.014.

IFNYGGANFIYC showed a protein stability index of 0.714 ± 0.028. Turning to IFPPPLLPSLPT, the protein stability index stood at 0.703 ± 0.086.

For IFRTRISSSLWC, the protein stability index amounted to 0.685 ± 0.0083.

Consider IFVTLGWARMRY, for which the protein stability index amounted to 0.647 ± 0.065. As to IFWGFSFRGWGG, the protein stability index amounted to 0.684 ± 0.0086.

IGFCVRGYGTTG: the protein stability index came out at 0.727 ± 0.1. The sequence IGFPFRIYRFAF came in with a protein stability index of 0.563 ± 0.04.

IGGGWIGRYVSR gave a protein stability index of 0.684 ± 0.033. Turning to IGGWWCGALLGD, the protein stability index is 0.79 ± 0.074. The result for IGHVVTWCFGRV reads 0.6898 ± 0.0041; that for IGLKKVVKIRKD, 0.614 ± 0.039. Consider IGTRHIKILGRY, for which the protein stability index turned out to be 0.698 ± 0.047. In the case of IGVRSTRFCAIR, the protein stability index came out at 0.655 ± 0.0093.

Regarding IGVVKHGAAEKV, the protein stability index amounted to 0.711 ± 0.069. In turn, IGWCPASFMVIG came in with a protein stability index of 0.585 ± 0.049.

Consider IHLSVYPLQPSC, for which the protein stability index stood at 0.76 ± 0.04. IHQVGCFHIPFG had a protein stability index of 0.666 ± 0.0097. Consider IIQNNNQLKKRR, for which the protein stability index was 0.671 ± 0.049. IIRKTKSKQEMI showed a protein stability index of 0.706 ± 0.039.

IIVPCGRWEGGG came in with a protein stability index of 0.69 ± 0.017. As for IIVWGGAGLWGV, the figure is 0.59 ± 0.0027; as for IKGKNTGKERER, 0.6176 ± 0.00089.
